Results as given in article PMC3482105.

What was measured:
GCaMP2-LIA = assay: crystal structure
GCaMP5H = assay: crystal structure

stoichiometry N (GCaMP2-LIA)	stoichiometry N (GCaMP5H)	Substance
2	–	GCaMP2-LIA
–	2	GCaMP5H
